How the values were obtained:
Experiment in all cases: SPOT array
[1] = target: T1, Boi1 SH3 (BOI1_YEAST), P38041
T1 chain: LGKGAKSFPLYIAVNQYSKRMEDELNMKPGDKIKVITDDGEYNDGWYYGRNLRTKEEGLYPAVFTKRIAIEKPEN

[2] = target: T2, Boi2 SH3 (BOI2_YEAST), P39969
T2 chain: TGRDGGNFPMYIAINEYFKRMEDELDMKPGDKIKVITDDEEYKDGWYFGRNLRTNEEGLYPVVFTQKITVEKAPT

[3] = target: T3, Myo5 SH3 (MYO5_YEAST), Q04439
T3 chain: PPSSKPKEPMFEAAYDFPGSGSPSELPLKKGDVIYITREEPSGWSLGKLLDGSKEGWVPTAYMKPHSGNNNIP

[4] = target: T4, Rvs167 SH3 (RV167_YEAST), P39743
T4 chain: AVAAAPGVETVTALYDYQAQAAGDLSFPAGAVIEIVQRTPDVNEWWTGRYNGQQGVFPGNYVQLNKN

[5] = target: Sho1 SH3 (SHO1_YEAST), P40073
Sequence of Sho1 SH3 (SHO1_YEAST), P40073 (P40073 295-366): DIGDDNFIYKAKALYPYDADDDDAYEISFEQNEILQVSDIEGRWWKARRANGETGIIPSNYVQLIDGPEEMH

[6] = target: T5, Yfr024 SH3 (LSB3_YEAST), P43603
T5 chain: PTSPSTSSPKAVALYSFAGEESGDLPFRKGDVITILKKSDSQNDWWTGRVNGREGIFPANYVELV

[7] = target: T6, Yhr016c SH3 (YSC84_YEAST), P32793
T6 chain: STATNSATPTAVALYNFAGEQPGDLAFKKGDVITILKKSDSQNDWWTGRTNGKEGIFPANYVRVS

KQAKRAPPSSPYVV [YDR406W 496-509]
normalised SPOT signal, Boehringer light units (BLU); mean over the file's lines of this peptide [1]: 470
normalised SPOT signal, Boehringer light units (BLU); mean over the file's lines of this peptide [2]: 2.9
normalised SPOT signal, Boehringer light units (BLU); mean over the file's lines of this peptide [3]: 295
normalised SPOT signal, Boehringer light units (BLU); mean over the file's lines of this peptide [4]: 19.4
normalised SPOT signal, Boehringer light units (BLU); mean over the file's lines of this peptide [5]: 127
normalised SPOT signal, Boehringer light units (BLU); mean over the file's lines of this peptide [6]: 152
normalised SPOT signal, Boehringer light units (BLU); mean over the file's lines of this peptide [7]: 20.9

KQLKKQGPKRPSSA [YKL032C 354-367]
normalised SPOT signal, Boehringer light units (BLU); mean over the file's lines of this peptide [1]: 767
normalised SPOT signal, Boehringer light units (BLU); mean over the file's lines of this peptide [2]: 28.7
normalised SPOT signal, Boehringer light units (BLU); mean over the file's lines of this peptide [3]: 468
normalised SPOT signal, Boehringer light units (BLU); mean over the file's lines of this peptide [4]: 80.4
normalised SPOT signal, Boehringer light units (BLU); mean over the file's lines of this peptide [5]: 151
normalised SPOT signal, Boehringer light units (BLU); mean over the file's lines of this peptide [6]: 751
normalised SPOT signal, Boehringer light units (BLU); mean over the file's lines of this peptide [7]: 109

KRKAKAPPPPPPPP [YDL146W 469-482]
normalised SPOT signal, Boehringer light units (BLU); mean over the file's lines of this peptide [1]: 1100
normalised SPOT signal, Boehringer light units (BLU); mean over the file's lines of this peptide [2]: 22.4
normalised SPOT signal, Boehringer light units (BLU); mean over the file's lines of this peptide [3]: 4030
normalised SPOT signal, Boehringer light units (BLU); mean over the file's lines of this peptide [4]: 31.2
normalised SPOT signal, Boehringer light units (BLU); mean over the file's lines of this peptide [5]: 17.5
normalised SPOT signal, Boehringer light units (BLU); mean over the file's lines of this peptide [6]: 19.3
normalised SPOT signal, Boehringer light units (BLU); mean over the file's lines of this peptide [7]: 11.5

KSLQKFEPRYPKTA [YMR014W 24-37]
normalised SPOT signal, Boehringer light units (BLU); mean over the file's lines of this peptide [1]: 815
normalised SPOT signal, Boehringer light units (BLU); mean over the file's lines of this peptide [2]: 0
normalised SPOT signal, Boehringer light units (BLU); mean over the file's lines of this peptide [3]: 245
normalised SPOT signal, Boehringer light units (BLU); mean over the file's lines of this peptide [4]: 112
normalised SPOT signal, Boehringer light units (BLU); mean over the file's lines of this peptide [5]: 38.8
normalised SPOT signal, Boehringer light units (BLU); mean over the file's lines of this peptide [6]: 134
normalised SPOT signal, Boehringer light units (BLU); mean over the file's lines of this peptide [7]: 50.8

KSIPRTKPNVPPLQ [YDR466W 448-461]
normalised SPOT signal, Boehringer light units (BLU); mean over the file's lines of this peptide [1]: 613
normalised SPOT signal, Boehringer light units (BLU); mean over the file's lines of this peptide [2]: 5.4
normalised SPOT signal, Boehringer light units (BLU); mean over the file's lines of this peptide [3]: 343
normalised SPOT signal, Boehringer light units (BLU); mean over the file's lines of this peptide [4]: 39.9
normalised SPOT signal, Boehringer light units (BLU); mean over the file's lines of this peptide [5]: 46.8
normalised SPOT signal, Boehringer light units (BLU); mean over the file's lines of this peptide [6]: 62.6
normalised SPOT signal, Boehringer light units (BLU); mean over the file's lines of this peptide [7]: 27.5

KQRIRKIPGIPLMS [YDR339C 161-174]
normalised SPOT signal, Boehringer light units (BLU); mean over the file's lines of this peptide [1]: 800
normalised SPOT signal, Boehringer light units (BLU); mean over the file's lines of this peptide [2]: 108
normalised SPOT signal, Boehringer light units (BLU); mean over the file's lines of this peptide [3]: 622
normalised SPOT signal, Boehringer light units (BLU); mean over the file's lines of this peptide [4]: 3830
normalised SPOT signal, Boehringer light units (BLU); mean over the file's lines of this peptide [5]: 179
normalised SPOT signal, Boehringer light units (BLU); mean over the file's lines of this peptide [6]: 12300
normalised SPOT signal, Boehringer light units (BLU); mean over the file's lines of this peptide [7]: 1120

KQSKRARPSSPYTV [YOR153W 486-499]
normalised SPOT signal, Boehringer light units (BLU); mean over the file's lines of this peptide [1]: 291
normalised SPOT signal, Boehringer light units (BLU); mean over the file's lines of this peptide [2]: 11.9
normalised SPOT signal, Boehringer light units (BLU); mean over the file's lines of this peptide [3]: 271
normalised SPOT signal, Boehringer light units (BLU); mean over the file's lines of this peptide [4]: 102
normalised SPOT signal, Boehringer light units (BLU); mean over the file's lines of this peptide [5]: 99.9
normalised SPOT signal, Boehringer light units (BLU); mean over the file's lines of this peptide [6]: 462
normalised SPOT signal, Boehringer light units (BLU); mean over the file's lines of this peptide [7]: 66.6

KTGRKTFPFLPYQI [YGL012W 364-377]
normalised SPOT signal, Boehringer light units (BLU); mean over the file's lines of this peptide [1]: 129
normalised SPOT signal, Boehringer light units (BLU); mean over the file's lines of this peptide [2]: 29.6
normalised SPOT signal, Boehringer light units (BLU); mean over the file's lines of this peptide [3]: 466
normalised SPOT signal, Boehringer light units (BLU); mean over the file's lines of this peptide [4]: 56.2
normalised SPOT signal, Boehringer light units (BLU); mean over the file's lines of this peptide [5]: 140
normalised SPOT signal, Boehringer light units (BLU); mean over the file's lines of this peptide [6]: 171
normalised SPOT signal, Boehringer light units (BLU); mean over the file's lines of this peptide [7]: 26.1

KRRSKSLPITPKSI [YIL045W 157-170]
normalised SPOT signal, Boehringer light units (BLU); mean over the file's lines of this peptide [1]: 585
normalised SPOT signal, Boehringer light units (BLU); mean over the file's lines of this peptide [2]: 6.2
normalised SPOT signal, Boehringer light units (BLU); mean over the file's lines of this peptide [3]: 921
normalised SPOT signal, Boehringer light units (BLU); mean over the file's lines of this peptide [4]: 125
normalised SPOT signal, Boehringer light units (BLU); mean over the file's lines of this peptide [5]: 19400
normalised SPOT signal, Boehringer light units (BLU); mean over the file's lines of this peptide [6]: 559
normalised SPOT signal, Boehringer light units (BLU); mean over the file's lines of this peptide [7]: 58.1

KSYRKADPTNPQGW [YBR055C 231-244]
normalised SPOT signal, Boehringer light units (BLU); mean over the file's lines of this peptide [1]: 78.2
normalised SPOT signal, Boehringer light units (BLU); mean over the file's lines of this peptide [2]: 0
normalised SPOT signal, Boehringer light units (BLU); mean over the file's lines of this peptide [3]: 103
normalised SPOT signal, Boehringer light units (BLU); mean over the file's lines of this peptide [4]: 56
normalised SPOT signal, Boehringer light units (BLU); mean over the file's lines of this peptide [5]: 29
normalised SPOT signal, Boehringer light units (BLU); mean over the file's lines of this peptide [6]: 94.7
normalised SPOT signal, Boehringer light units (BLU); mean over the file's lines of this peptide [7]: 9.6

KQLMKNLPKIPLLN [YDR228C 355-368]
normalised SPOT signal, Boehringer light units (BLU); mean over the file's lines of this peptide [1]: 594
normalised SPOT signal, Boehringer light units (BLU); mean over the file's lines of this peptide [2]: 9.8
normalised SPOT signal, Boehringer light units (BLU); mean over the file's lines of this peptide [3]: 580
normalised SPOT signal, Boehringer light units (BLU); mean over the file's lines of this peptide [4]: 130
normalised SPOT signal, Boehringer light units (BLU); mean over the file's lines of this peptide [5]: 36400
normalised SPOT signal, Boehringer light units (BLU); mean over the file's lines of this peptide [6]: 794
normalised SPOT signal, Boehringer light units (BLU); mean over the file's lines of this peptide [7]: 95.2

KRRSKSLPTTPGIR [YER054C 189-202]
normalised SPOT signal, Boehringer light units (BLU); mean over the file's lines of this peptide [1]: 310
normalised SPOT signal, Boehringer light units (BLU); mean over the file's lines of this peptide [2]: 0.8
normalised SPOT signal, Boehringer light units (BLU); mean over the file's lines of this peptide [3]: 592
normalised SPOT signal, Boehringer light units (BLU); mean over the file's lines of this peptide [4]: 17.6
normalised SPOT signal, Boehringer light units (BLU); mean over the file's lines of this peptide [5]: 29800
normalised SPOT signal, Boehringer light units (BLU); mean over the file's lines of this peptide [6]: 562
normalised SPOT signal, Boehringer light units (BLU); mean over the file's lines of this peptide [7]: 34.5

KQKKKPTPTRPYNY [YKL089W 339-352]
normalised SPOT signal, Boehringer light units (BLU); mean over the file's lines of this peptide [1]: 33.6
normalised SPOT signal, Boehringer light units (BLU); mean over the file's lines of this peptide [2]: 26.3
normalised SPOT signal, Boehringer light units (BLU); mean over the file's lines of this peptide [3]: 516
normalised SPOT signal, Boehringer light units (BLU); mean over the file's lines of this peptide [4]: 31.6
normalised SPOT signal, Boehringer light units (BLU); mean over the file's lines of this peptide [5]: 97.1
normalised SPOT signal, Boehringer light units (BLU); mean over the file's lines of this peptide [6]: 680
normalised SPOT signal, Boehringer light units (BLU); mean over the file's lines of this peptide [7]: 44.3

Source: article PMC314469, “Protein Interaction Networks by Proteome Peptide Scanning” (PLoS Biology, 2004)
